{"source": "paper PMC11481574", "molecular_target": "Vibrio His-FliFG fusion protein with the FliG-G214S mutation (Vibrio alginolyticus)", "experiment": "cryo-EM structure; single-particle cryo-EM of the purified, concentrated MS-ring in buffer with LMNG; grids frozen after blotting at 4°C, 100% humidity; two classes with 35- or 34-fold rotational symmetry", "note": "Several values for one entry are separate records, joined by “and”; a condition that tells them apart may be missing. Equal values may be shown once."}
{"substance": "Vibrio His-FliFG fusion protein with the FliG-G214S mutation", "values": [{"measurement": "stoichiometry N", "value": "35 and 34"}]}
